Experimental data published in the RNAGym collection of RNA variant scans (doi:10.7554/elife.80360).

B1: Hairpin Ribozyme (parent)
chain: GUCCUCUUUCACGUGCGCGUGAAAGAGAGAAGUGAACCAGAGAAACACACGUUGUGGUAUAUUACCUGGUA

Variants of: B1
Experiment: self-cleavage, relative activity (ratio to wild type); higher = more cleavage; co-transcriptional

Variant	self-cleavage
GUCCUCUUUCACGUGCGCGUGAAAGAGAGAAGUGAACCAGAGAAACUCACGUUGUGGUAUAUUACGUGGUA	0.116
GUCCUCUUUCACGUGCGCGUGAAAGAGAGAAGUGAACCAGAGAAACUCACGUUGUGGUAUACUACCUGGUA	0.264
GUCCUCUUUCACGUGCGCGUGAAAGAGAGAAGUGAACCAGAGAAACAGACGUUGUGGUAUAUAACCUGGUA	0.181
GUCCUCUUUCACGUGCGCGUGAAAGAGAGAAGUGAACCAGAGAAACUCACGUUGUGGUAUAUUACCUCGUA	0.26
GUCCUCUUUCACGUGCGCGUGAAAGAGAGAAGUGAACCAGAGAAACUCACGUUGUGGUAUAUUACCUAGUA	0.148
GUCCUCUUUCACGUGCGCGUGAAAGAGAGAAGUGAACCAGAGAAACAAACGUUCUGGUAUAUUACCUGGUA	0.0747
GUCCUCUUUCACGUGCGCGUGAAAGAGAGAAGUGAACCAGAGAAACAAACGUUUUGGUAUAUUACCUGGUA	0.176
GUCCUCUUUCACGUGCGCGUGAAAGAGAGAAGUGAACCAGAGAAACAAACGUUGUGGUAUAUUACCUGGUG	0.19
GUCCUCUUUCACGUGCGCGUGAAAGAGAGAAGUGAACCAGAGAAACAAACGUUGUGGUAUAUUACCUGGUU	0.129
GUCCUCUUUCACGUGCGCGUGAAAGAGAGAAGUGAACCAGAGAAACAAACGUUGUGGUAUAUUACCUGGUC	0.343
GUCCUCUUUCACGUGCGCGUGAAAGAGAGAAGUGAACCAGAGAAACUCACGUUGUGGAAUAUUACCUGGUA	0.106
GUCCUCUUUCACGUGCGCGUGAAAGAGAGAAGUGAACCAGAGAAACUCACGUUGUGGUAUAUUAUCUGGUA	0.0249
GUCCUCUUUCACGUGCGCGUGAAAGAGAGAAGUGAACCAGAGAAACAGACGUUGUGGUAUAUUACCUAGUA	0.226
GUCCUCUUUCACGUGCGCGUGAAAGAGAGAAGUGAACCAGAGAAACAGACGUUGUGGUAUAUUACCUUGUA	0.163
GUCCUCUUUCACGUGCGCGUGAAAGAGAGAAGUGAACCAGAGAAACAAACGUUGUGGUAUGUUACCUGGUA	0.151
GUCCUCUUUCACGUGCGCGUGAAAGAGAGAAGUGAACCAGAGAAACAGACGUUGUGGUAUAGUACCUGGUA	0.107
GUCCUCUUUCACGUGCGCGUGAAAGAGAGAAGUGAACCAGAGAAACAGACGUUGUGGUAUACUACCUGGUA	0.139
GUCCUCUUUCACGUGCGCGUGAAAGAGAGAAGUGAACCAGAGAAACAAACGUUGUUGUAUAUUACCUGGUA	0.304
GUCCUCUUUCACGUGCGCGUGAAAGAGAGAAGUGAACCAGAGAAACAAACGUUGUAGUAUAUUACCUGGUA	0.135

Variant	self-cleavage
GUCCUCUUUCACGUGCGCGUGAAAGAGAGAAGUGAACCAGAGAAACAAACGUUGUGGUAUAUUACCUGGUA	0.157
GUCCUCUUUCACGUGCGCGUGAAAGAGAGAAGUGAACCAGAGAAACAGACGUUGUGGUAUAUUACCUGGUA	0.153
GUCCUCUUUCACGUGCGCGUGAAAGAGAGAAGUGAACCAGAGAAACAAACGUUGUGGUAGAUUACCUGGUA	0.149
GUCCUCUUUCACGUGCGCGUGAAAGAGAGAAGUGAACCAGAGAAACUCACGUUGUGGUCUAUUACCUGGUA	0.164
GUCCUCUUUCACGUGCGCGUGAAAGAGAGAAGUGAACCAGAGAAACAGACGUUGUGGAAUAUUACCUGGUA	0.105
GUCCUCUUUCACGUGCGCGUGAAAGAGAGAAGUGAACCAGAGAAACUCACGUAGUGGUAUAUUACCUGGUA	0.133
GUCCUCUUUCACGUGCGCGUGAAAGAGAGAAGUGAACCAGAGAAACUCACGUCGUGGUAUAUUACCUGGUA	0.0703
GUCCUCUUUCACGUGCGCGUGAAAGAGAGAAGUGAACCAGAGAAACAAACGUAGUGGUAUAUUACCUGGUA	0.228
GUCCUCUUUCACGUGCGCGUGAAAGAGAGAAGUGAACCAGAGAAACAAACGUGGUGGUAUAUUACCUGGUA	0.191
GUCCUCUUUCACGUGCGCGUGAAAGAGAGAAGUGAACCAGAGAAACUCACGUUGUGGUAUAUUACCUGCUA	0.227
GUCCUCUUUCACGUGCGCGUGAAAGAGAGAAGUGAACCAGAGAAACUCACGUUGCGGUAUAUUACCUGGUA	0.203
GUCCUCUUUCACGUGCGCGUGAAAGAGAGAAGUGAACCAGAGAAACUCACGUUGGGGUAUAUUACCUGGUA	0.128
GUCCUCUUUCACGUGCGCGUGAAAGAGAGAAGUGAACCAGAGAAACAGACGUUGUGGUAUAUUACAUGGUA	0.131
GUCCUCUUUCACGUGCGCGUGAAAGAGAGAAGUGAACCAGAGAAACAGACGUUGUGGUACAUUACCUGGUA	0.0854
GUCCUCUUUCACGUGCGCGUGAAAGAGAGAAGUGAACCAGAGAAACAGACGUGGUGGUAUAUUACCUGGUA	0.128
GUCCUCUUUCACGUGCGCGUGAAAGAGAGAAGUGAACCAGAGAAACAGACGUUGUUGUAUAUUACCUGGUA	0.193
GUCCUCUUUCACGUGCGCGUGAAAGAGAGAAGUGAACCAGAGAAACAAACGUUGUGCUAUAUUACCUGGUA	0.148
GUCCUCUUUCACGUGCGCGUGAAAGAGAGAAGUGAACCAGAGAAACUCACAUUGUGGUAUAUUACCUGGUA	0.157
GUCCUCUUUCACGUGCGCGUGAAAGAGAGAAGUGAACCAGAGAAACAAACGUUGCGGUAUAUUACCUGGUA	0.144
